Assay: soluble on expression in E. coli; label from the status in PepcDB or PDB records

Soluble on expression in E. coli, not soluble:
MGSDKIHHHHHHMKIERLDKYIWKIPKEGDMKVDAIIFTDAESVNDPQFREAMKQLMNVATLPGIVKYALAMPDIHWGYGFPIGGVAAFDVKEGIISPGGVGFDINCGVRLMKTDLTYEDVKDRMRSLVEAIYEFVPAGVGSTGDIVLGKKGLRKVLVEGAEWAVKSGYGLEEDLERIEDGGKIHPADPSYVSEEAFERGSDELGTLGAGNHFVEVQMVQEIYDEELAEFFGLEIGTITVMIHSGSRGFGHQVATDYIRLMRDNLKEHNKNLPDKQLINAPFEHPLGQAYYSAMNCAANYAFANREILGHLVRKAFWKVFGRDTRVDLIYDVAHNIAKVEEYEVDGKRRKLVVHRKGATRSLGPGSEKVPSIYREVGQPVIIPGDMGTASYLLVGTKKAEEKTFGSTAHGAGRVLGRSAALKKLDYREVLDELAEKNIVVMSKSKKTLVEEAPEVYKDVDRVVQIVHEIGISRKVARMIPLGVVKG
MGSDKIHHHHHHMKIGIDGRAAKWYRGTGIGTYTYQLISHINKLDEANDYTIFLPDSSNLNFKLKNNFSLKSINCTAKNNFWDQVNIPNIIKKDDTELYHVPQNGIGLPYNKNCRFTITLHDIIPYKMPETVGKKYLKIFEEEIPKIIPLCDGIITVSDFSKKDISEFFNYPESKIYVTYLSAEDIYRPIEKCISKDIIKNLYGIDKNYILYVGGFSPRKNISGIIHAFSKLKKTTKTNLKLIIAGKKGLSYPNYVDIAKKLNVSSDVIFPGFIPLEYMPFLYNAAEFLIYPSFYEGFGLPPLEAMACKVPVITSNITSLYEIFNGCALIVNPYDVEKIKDAMEIMYFDSSVRKIYSEKGFEFSKKLTWNSTAISTIKAYEKISKN
MGSDKIHHHHHHMKIGIVTFHRALNYGAVLQACAMRRIFSDHGEVEMVDYWPDYHSSHYSLLDTRFLNKNQSLSSRVRLLKSAIKRIILLPVRLKRNKKFLSFIDSNIVKVSNAPIKLANKIPDYFDVVVYGSDQIWRVYDFDNYPRPDMVYMGAGVLDGTRKIAFAASMGDVNVDTLCDDSVIKALKNFEHINVREQALSESLLKHSGLSSCVVLDPTFLVSSDVWKRMAETIPRNRKDNKYALFYSLIPSEESIRIAKNIAEEKGVELVEINGFETIGGLFNKSVAQSAGPLDFLELIMNAEFIVSTSFHGVVFSIIFEKQFCACGMKGHSERVRSLLSKLSIEDRLIDTVEQLESLGEIDYKEVTKLLAREIEHSKELLEYSLFE
MGSDKIHHHHHHMKILIKQDFDTMSEWAKMLLLSTMSQDKRVNLSITAGKTPALVYQKLASIVKNSSDFDNVHYYNFDEIPVPHQKEGITLTDLRTLYLTPAEISEQNIHPLTVENFQQQEQRIADAGGLDLMLIGLGADGHFCGNMPTTTHFKNETYQVTVTGSEPWFVPEMMQPGMTFVTMGPASIMKVKHLVLIVNGEQKAQMVKQVLQGPVTETYPASILQLHPNLTVLLDEAAASQLEK
MGSDKIHHHHHHMKIMVSEQFQCFMASLGVDLNSLLEAAGINKVVWQEQLMLSDVEYWQLMNEFDNQLTDEMILSLGNITNINTFMPSFFAALAAKNGEQAIARMATYKSLAGPVHLEIVTKPDIVNIHILGNSLGVELPRFTIMTEQLLLISLLRVGTGKLIKPISVGSKYPYGDQIDAVMGIRPQQLADNCIQFQVTDLQRAFISANNSMWAFLQPGLDQQKLAIEHNQSLLATVQALLLKKIPSGSFSIDEIATSLNLSKRTLQRHLSTLSTTFNDEVQIARRTLVVPLMKDQSLNLIEISYLLGYSDPESFSRAFKKWFHQSPSVYRQQSLGMFKN
MGSDKIHHHHHHMKIQEVKRILTRWQPSSFSLYREVFTQYGGSINMHPDIVDYFMKRYNWHFKFFHYKEDDKIKGAYFICNDQNIGILTRRTFPLSSDEILIPMAPDLRCFLPDRTNRLSALHQPQIRNAIWKLARKKQNCLVKETFSSKFEKTRRNEYQRFLKKGGSVKSVADCSSDELTHIFIELFRSRFGNTSSCYPADNLANFFSQLHHLLFGHILYIEGIPCAFDIVLKSESQMNIYFDVSNGAIKNECRPLSPGSILMWLNISRARHYCQERQKKLLFSIGILKPEWEYKRMWSTPYFTGKSIC
MGSDKIHHHHHHMKISPLCPSCLLGRVYYEAKLVTDDEDLISQCVDESLKILAENYSSAPINAHLATRIHRRVYEILGVEDPYAEVKARANEVARQVLPLAKEIVEGSDDPFKTAVIVSIVGNNFDYGVQGHKVVEEEFRDFLKRKVQEGLKINDTERIKELSSGKVVYLTDNAGEIFFDTLLMKEIKRRCEKLTAVVRGRPIISDATIEDARLARVDKIADELLTNGKGAIGIIMDELPDETRKALEEADLIVAKGMANYECLSDGSLKPIAFLLTAKCEPVARDIGVNVGDMVAKVVE
MGSDKIHHHHHHMKISTHELIAVVSQFNPWWRGESIQDLPTWHRAAYQELELWLIKPPVPRAIFLSGARQIGKTTLLLQAIDKLLKEGVKPGNILYVTFDHPLIKMSDIDAVLEAWREREPKTGDLEYIFIDEAQFMRSWGTWIKHQVDFSKSRRIFFTGSATPIIEADQESGVGRWHTIRLTTLSFYEYLQIKKIDLPQLPTVKTLRELFEWPQQEFYKVKELAVHYVGHFHEYLLRGGFPQTAQVENITQAQRLLREDIIDKVLKRDMTALFGVRRILELEQTFLYLCMHDGGLLDMTDLCSNLEVKRPTIQNYIFLLEATNLIYRLPPFGYGKDILRAKYKIYLADAAIAPAVLLKDKSILDDPESLGIATETAVFKHLFARYYSQNVRFSYWRGTKDHEVDVVAQIGDQIIPFEVKYRSQHTNAKALKGLLELCKKKSIAHGYVVTKSLDDFGIMKALPEIKTNIMQIPAPLLCYWMGESELRQTFGV
MGSDKIHHHHHHMKITPIAFESLGVRSQATLIETKDLRVLVDPAVSLAPRRYNLPPHQREVDRLTQLAKVLVDVAKDVDVIVVSHYHYDHHDPGYVIPTDIYKNKIVFLKDPQNMINNSQKYRRAPRFLRSIKDKPRKIEIADGKTFEFNTTTISFSPAVPHGADERLGYVIQVAISDKDSTVIFTSDIEGAPKDVHLKFTKEKMPTVIIIDGPLSYLLGRALKEEELENSIRNMEEIIKNGLETVIIDHHVLRDINYAQVLKPVHDIAKDLGVRVTTAAEYLNLEPLILEARRKELYKEDNRPAKIPRGLANLLNAGDG
MGSDKIHHHHHHMKIVYCIAGTYNSGGMERVLANKANYLVSHGYEVVIITTDQREKQSFFELDQRINCCDLRINYEENNGKSFLNKLANYPFKQWKHRKRLTACLKQLKADIVVSMFCNDASFLWKIDDGSKKVLEIHFSRYKRLQYGRKGVWKIADRWRSRMDERTVRKYDRFVVLTAEDKAYWGNLSNMIVIPNALSHSTTELHLSPLTARKVIAIGRYGYQKGFDYLIEAWEIIHCAQPAWTLDIIGDGEWTDRLQRQIKRKRLNHCVFLKPPTGQIEEEYRQASLLVLSSRYEGLPMVLLEAQSFGLPIVSFACKCGPGDVITDGKNGFLVSVGNLPMLADRIMRLMEDEGLRKRMGMNAYHNSKTFSEERIMQCWIDMFDKLVSQR
MGSDKIHHHHHHMKKEADMIHPIANAPCSWGVDDPKNPNLPAWATVLKEAAQAGYRSIELGPWGYLPSDPASLRAALEQHQLSLVAGTIFDDLVSEAHFPTLVALTHQICRNLSQVAAAEPIPGRPFQPPYLVIIDFGNPERARFAGRGALAPRLNDKDWQRMMEHIIALSTLAWQEYGVRAVIHPHAGGSIEFADEIERLANDIPHDVAGLCLDTGHLYYAGMDPLDWLDRYYHRLDYLHFKDVDPQVYQRAIHEGIDFFTACAEGVMCPLGSGAIDYPAIKDFLARRGYQGWITIEQERDPRHAAGSLQAVTESLRYLRDVGF
MGSDKIHHHHHHMKKHSPIGCISKAGLFSKLPHKMLEKIAPISTHQEYFEKGSFIRQPGDGKNGMMFVDKGSAKIYNLNRDGKETVLGVLNKGDYDGQQNLFQDDSHENFIQALQDTYICSISRADFQRLLKDTPDLTLNLLNNFGEKLVAIETNSVRRNSMNAKDRLMDYLVEQSQKNGATKFTLPLKKKDLASYLGTSPETLSRQLKSLEKEGKIKVNRREITIVKD
MGSDKIHHHHHHMKKILIVTRTFGKYSQEPVEFLRKEGFEIIRSDTIDPDILKEVDALIVGTHPVTAEMVENSSLKIIAKHGVGVDNIDLEAATKKGIPVTITAGANSLSVAELTIAFIFALSRGLVWAHNKLFLERRWEGTVGQEVSGKTLGVVGFGSIGREVVKKAVCLGMNVLVYDPYVSKDSVRLLEATPVDDLEQLLKESDFVSLHVPLNESTKNMIGERELSLMKKSAFLINTSRGELVDEEALVKALKEGRIAGAALDVFSEEPPDANSPLFECPNLITTAHIGAHTKEAIFRMNMMAAQSIVDFFKGRIPRYVVNKEVIRILKEKGYQEIS
MGSDKIHHHHHHMKKPFLHSESAADVGMEIQQSYDRLLETTRKWIDILHFDPLLETGLTPRDIVWRKNKSRLYRYVNHKGYKHRTPILMLYALINKAYILDLRPGMSLVEYLVDQGFDVYLLDWGEFDWEDRDLSFSQLIVDYISRAVYKVCQYSNVNELSILGYCMGGTMATMYASLYPQPRIKNMIYVAAPIDFEDAGLSSIWLKASVFDVDKVTDTFSLIPKEFVDLGLKMLNPVNNFVATYTRLWKAIDEGVSIEAWKALNKWVDDNINFPGKAYREWVKYLYQENALVKDEFIINGRKVVLSNIDAALLVLTGKTDHIVLPQQSTPILELSSSQDKTNLQYPVGHGGLVFGSRARNEVYPTIAEWLAQRS
MGSDKIHHHHHHMKLADIYAHFQEDIFTIERELEEAVQARHDILRKASVHLLKAGGKRIRPVFVLLAGKFGTYDVNVLKHIAVPLELIHMASLVHDDVIDDADLRRGKKTIKSQWDNRIAMYTGDYMFAKAVQTATYFDDPNIHQIISNAINEMCLGEVEQIRDQYNPNQHLRIYFRRIKRKTALLIAVSCQLGALAAKADPAIVQKLYYFGYYVGMSFQITDDVLDFVGTEEQLGKPAGSDLLQGNVTLPALYALHHDMHAKRLIEQVLADRGNNSVHMEEVIAAIVSSGGIDYALSISDLYLKKAMRMLDHLPDDEPKQFLQEIANYIGRRKF
MGSDKIHHHHHHMKLDPTSPSLNIMLANPRGFCAGVDRAISIVERALELFSPPIYVRHEVVHNRYVVQNLKDRGAVFVEELDQVPDNNIVIFSAHGVSQAVRQEAKARGLRVFDATCPLVTKVHLQVTRASRKGIECILIGHEGHPEVEGTMGQYDNPNGGVYLIESPADVDALEVRDPNNLCFVTQTTLSVDDTLDIIAALQKRFPSIEGPRKDDICYATQNRQDAVRNLSADVDLLIVVGSKNSSNSNRLRELALKTGTQSYLVDTADDVESSWFDNVSRVAVTAGASAPEVLVQQVVQAIAKLAPSVVTEVEGRKEDTVFAVPAELR
MGSDKIHHHHHHMKLFRPVDGRPNSGSSCILRSYYIIMAYMSMPIASQRQEKDMTEDIRSRIGLRPVINVSGTMTSLGASIVVPEAVEAMAAILPQFVEINDLQRKASAIIARLTGGEAGFVTASCSSGISLAVAGAITGNNLLAIEKLPDIAPEKNEVLVQMGHVVSYGAPVDQAIRLGGGKVVLVGQATSTHRYHMENAITEKTAAAVYVVSHHVVDYGLLHLSEFVEIAHAKGVPVIVDAASEYDLELFLATGADVVLYSGHKFLGGPTSGIVAGSKELVRHAFLQNMGIGRGMKVGKESIYGVMAALEAWEKRDHAGIRERETGYLNLWKKTLDGRPGVTALIEPDPTNNPLDRMRVIIDADEAHITAWDLTTALARGNPPIITRDHEVEHRYFYLDPCNLHPGQETIVASRLAEELDKARASNEMIATPFEDRSRHRFDGMLCWPD
MGSDKIHHHHHHMKLIWLGHGGFRLETGETTLLIDPWLTGNPMLEDSQHDAATQGATHILLTHAHFDHVADVLELAKHLSVPIVGQYDLMGYWGETEGVQTVGFNKGGTVTVGDTRVSMVPASHSNTFSTRDGLRTAGSEVGYMIRAEGKTLYVSGDTDIMADMDWMGDYYKPEIGILSAGGHFTMDMKAAAYAAQRYFAFKTVIPCHYRTFPLLEQSAQDLIDGLPGVNVIEPQIMKDIEL

From the DeepSol protein solubility set
